The values that follow come from paper PMC9234707.

Assay [1] deals with BMP10 (human (by the printed accession)) (UniProt O95393).
Assay [2] addresses activin B (human (by the printed accession)) (UniProt P09529).
For assay [3], the target named is BMPR2 GBD-Fc (WT) (human) (UniProt Q13873). As to the kind of experiment: SPR; BIAcore 3000; receptor-Fc (about 500 RU BMPR2-Fc WT or variants, 150 RU ACVR2A-Fc) captured on immobilised anti-human IgG (Fc), CM5 chip; single injections of 80 nM GF, single curve fits, averages of two independent injections; 25 °C; HBS/EPS (0.01 M Hepes, 0.5 M NaCl, 3 mM EDTA, 0.005% Tween 20, pH 7.4) with 0.1% bovine serum albumin; 50 μl/min; 1:1 binding model, KD = kd/ka. On the technique in general: SPR reads the build-up and loss of mass on a sensor chip optically.

Assay [4] concerns the target BMP10 (human (by the printed accession)) (UniProt O95393). This is another data set of the same source.
In assay [5] the target is ACVR2A GBD-Fc (human) (UniProt P27037). As to the kind of experiment: SPR; BIAcore 3000; receptor-Fc (about 500 RU BMPR2-Fc WT or variants, 150 RU ACVR2A-Fc) captured on immobilised anti-human IgG (Fc), CM5 chip; single injections of 80 nM GF, single curve fits, averages of two independent injections; 25 °C; HBS/EPS (0.01 M Hepes, 0.5 M NaCl, 3 mM EDTA, 0.005% Tween 20, pH 7.4) with 0.1% bovine serum albumin; 50 μl/min; 1:1 binding model, KD = kd/ka.

Assay [6] has the same target. As to the kind of experiment: SPR; BIAcore 3000; receptor-Fc captured on immobilised anti-human IgG (Fc), CM5 chip; titration, global fit of 2.5, 5.0, 10.0, 20.0 and 40.0 nM GF injections; 25 °C; HBS/EPS (0.01 M Hepes, 0.5 M NaCl, 3 mM EDTA, 0.005% Tween 20, pH 7.4) with 0.1% bovine serum albumin; 50 μl/min; 1:1 binding model, KD = kd/ka.

Sequence of ACVR2A GBD-Fc (human) (P27037 whole entry): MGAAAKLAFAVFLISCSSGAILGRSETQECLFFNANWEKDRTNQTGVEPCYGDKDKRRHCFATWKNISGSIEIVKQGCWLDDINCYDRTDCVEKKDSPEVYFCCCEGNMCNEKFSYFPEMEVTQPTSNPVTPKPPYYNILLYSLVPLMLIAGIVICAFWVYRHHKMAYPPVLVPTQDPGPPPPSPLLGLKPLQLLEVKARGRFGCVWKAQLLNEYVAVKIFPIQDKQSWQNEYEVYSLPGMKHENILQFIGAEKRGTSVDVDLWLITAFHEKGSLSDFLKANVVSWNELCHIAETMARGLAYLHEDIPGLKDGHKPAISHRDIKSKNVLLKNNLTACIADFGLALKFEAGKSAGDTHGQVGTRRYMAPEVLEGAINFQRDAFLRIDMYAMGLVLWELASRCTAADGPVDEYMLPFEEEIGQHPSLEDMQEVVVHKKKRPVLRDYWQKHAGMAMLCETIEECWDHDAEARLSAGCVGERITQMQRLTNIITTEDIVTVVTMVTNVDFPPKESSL
Sequence of BMP10 (human (by the printed accession)) (O95393 317-424): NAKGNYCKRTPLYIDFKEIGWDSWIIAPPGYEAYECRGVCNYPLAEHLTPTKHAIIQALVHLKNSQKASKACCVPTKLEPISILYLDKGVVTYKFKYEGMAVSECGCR
Sequence of BMPR2 GBD-Fc (WT) (human) (Q13873 whole entry): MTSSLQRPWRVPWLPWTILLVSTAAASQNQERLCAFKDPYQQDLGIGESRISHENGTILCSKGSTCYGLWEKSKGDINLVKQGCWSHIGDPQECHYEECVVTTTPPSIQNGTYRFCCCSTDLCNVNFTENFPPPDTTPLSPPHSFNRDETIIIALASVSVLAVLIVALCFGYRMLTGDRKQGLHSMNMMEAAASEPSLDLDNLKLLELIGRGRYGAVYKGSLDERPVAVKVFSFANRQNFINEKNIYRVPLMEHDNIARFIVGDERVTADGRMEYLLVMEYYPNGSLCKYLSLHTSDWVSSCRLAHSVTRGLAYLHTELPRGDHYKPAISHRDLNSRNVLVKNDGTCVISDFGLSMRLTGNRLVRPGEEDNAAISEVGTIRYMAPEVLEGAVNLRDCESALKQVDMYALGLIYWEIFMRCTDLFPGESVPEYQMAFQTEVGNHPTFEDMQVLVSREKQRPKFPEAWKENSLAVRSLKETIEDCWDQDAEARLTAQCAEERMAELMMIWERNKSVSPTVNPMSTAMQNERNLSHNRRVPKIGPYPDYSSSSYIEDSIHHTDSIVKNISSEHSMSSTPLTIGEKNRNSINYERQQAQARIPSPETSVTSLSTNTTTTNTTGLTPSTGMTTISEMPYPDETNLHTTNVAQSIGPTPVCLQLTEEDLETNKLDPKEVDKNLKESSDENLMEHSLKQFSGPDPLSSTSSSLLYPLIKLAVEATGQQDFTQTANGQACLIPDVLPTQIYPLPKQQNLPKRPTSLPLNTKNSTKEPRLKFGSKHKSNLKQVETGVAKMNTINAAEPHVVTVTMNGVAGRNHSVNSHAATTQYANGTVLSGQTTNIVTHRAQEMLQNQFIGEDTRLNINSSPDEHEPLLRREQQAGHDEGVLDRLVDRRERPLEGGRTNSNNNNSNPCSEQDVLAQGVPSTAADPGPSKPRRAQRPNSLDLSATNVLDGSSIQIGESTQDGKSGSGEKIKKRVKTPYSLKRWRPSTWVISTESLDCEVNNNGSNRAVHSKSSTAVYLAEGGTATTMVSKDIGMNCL
Sequence of BMP7 (P18075 293-431): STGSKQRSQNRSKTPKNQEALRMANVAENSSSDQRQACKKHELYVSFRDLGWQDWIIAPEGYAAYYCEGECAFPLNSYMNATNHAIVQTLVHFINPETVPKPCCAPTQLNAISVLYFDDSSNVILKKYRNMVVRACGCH
Sequence of activin B (human (by the printed accession)) (P09529 293-407): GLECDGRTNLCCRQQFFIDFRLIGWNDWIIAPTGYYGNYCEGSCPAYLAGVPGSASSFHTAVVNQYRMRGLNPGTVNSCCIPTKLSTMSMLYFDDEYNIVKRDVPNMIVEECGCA

As for “ACVR2A GBD-Fc (from UniProt P27037 20-120) (Fc fusion)”, in assay [1], the IC50 of inhibition of signalling by 5 nM BMP10 in stably transfected HEK293 BRE (SMAD1/5/8) luciferase reporter cells, 0-400 nM receptor-Fc came to 187 nM. In assay [2], this substance gave an IC50 of inhibition of signalling by 5 nM activin B in stably transfected HEK293 SBE (SMAD2/3) luciferase reporter cells, 0-400 nM receptor-Fc of 14 nM.
The Kd is the free concentration of one partner at which half of the binding sites on the other are occupied at equilibrium, for simple one-to-one binding. High values mean lower affinity, low ones higher affinity. As a reminder, the koff is a measure of how fast the partners let go of each other. A low value points to a long-lived complex. One may read the kon as a measure of how fast the partners come together. A high value points to faster complex formation. As for “BMP7 (from UniProt P18075 293-431) (ligand)”, in assay [3], the Kd was 13 nM, the koff came out at 0.0071 s⁻¹ and the kon came out at 520000 M⁻¹ s⁻¹.
On to “BMPR2 GBD-Fc (WT) (from UniProt Q13873 27-138) (Fc fusion)”, for which the IC50 of inhibition of signalling by 5 nM BMP10 in stably transfected HEK293 BRE (SMAD1/5/8) luciferase reporter cells, 0-400 nM receptor-Fc in assay [1] was determined as 35 nM.
In the case of “BMPR2-Fc variant G47D (from UniProt Q13873 27-138) (Fc fusion)”, in assay [4], the IC50 of inhibition of signalling by 5 nM BMP10 in stably transfected HEK293 reporter cells was determined as 10 nM.
The same measure, in the same setting: the value for “BMPR2-Fc variant Q42R (from UniProt Q13873 27-138) (Fc fusion)” was 54 nM; that for “BMPR2-Fc variant Q92H (from UniProt Q13873 27-138) (Fc fusion)” was 10 nM; that for “BMPR2-Fc variant S107P (from UniProt Q13873 27-138) (Fc fusion)” was 7 nM.
In the assay with ACVR2A GBD-Fc (human) [5], “activin A (from UniProt P08476 311-426) (ligand)” returned a Kd of 0.09 nM, a koff of 0.00019 s⁻¹ and a kon of 2.1e+06 M⁻¹ s⁻¹. Besides, in assay [3], the Kd worked out at 9.6 nM, the koff is 0.0036 s⁻¹ and the on-rate (kon) was found to be 370000 M⁻¹ s⁻¹. In the assay with ACVR2A GBD-Fc (human) [6], this substance came in with a Kd of 0.018 nM, a koff of 1.2e-05 s⁻¹ and a kon of 600000 M⁻¹ s⁻¹.
